Results on one molecule are retold here after patent US10517958B2, “Compositions and methods for the treatment of platinum-drug resistant cancer” (ZYMEWORKS INC., priority 2016, dated 2019).

The assay deals with UM-UC13 parental and ex vivo cells. Description: Internalization assay (confocal microscopy). The class given is cell-based, human. The following applies: ex vivo and in situ G0-G6 tumor cells. The procedure: UM-UC13 parental and ex vivo cells were seeded to cover slips and grown to 80% confluency. 100 nM rVAR2-V5 was incubated with the cells for 1 hour at 37° C. and 5% CO2. Cells were subsequently washed with PBS prior to fixation with 4% paraformaldehylde for 15 min at room temperature followed by permeabilization with 0.5% trition for 3 mins and blocked with 3% BSA for 30 mins. Cells were then incubated with primary Anti-V5 antibody from ThermoFischer (R960-25) according to manufacturer's instructions followed by 1 hour incubation with anti-mouse AlexaFluor488 secondary antibody from Invitrogen (A-21202). Cover slips were washed with PBS and mounted in mounting media containing DAPI and analyzed by laser-scanning confocal microscopy.

B1: rVAR2: ID1, DBL2X and ID2a domains of the full-length malarial VAR2CSA protein linked to a C-terminal V5 tag (protein)
chain: GHSDSGKYDPCEKKLPPYDDNDQWKCQQNSSDGSGKPENICVPPRRERLCTYNLENLKFDKIRDNNAFLADVLLTARNEGEKIVQNHPDTNSSNVCNALERSFADLADIIRGTDQWKGTNSNLEKNLKQMFAKIRENDKVLQDKYPKDQKYTKLREAWWNANRQKVWEVITCGARSNDLLIKRGWRTSGKSDRKKNFELCRKCGHYEKEVPTKLDYVPQFLRWLTEWIEDFYREKQNLIDDMERHREECTREDHKSKEGTSYCSTCKDKCKKYCECVKKWKTEWENQENKYKDLYEQNKNKTSQKNTSRYDDYVKDFFEKLEANYSSLENYIKGDPYFAEYATKLSFILNPSDANNPSGETANHNDEACNCNESGISSVGQAQTSGPSSNKTCITHSSIKTNKKKECKDVKLGVRENDKDLKICVIEDTSLSGVDNCCCQDLLGILQENCSDNKRGSSSNDSCDNKNQDECQKKLEKVFASLTNGYKCDKCKSGTSRSKKKWIWKKSSGNEEGLQEEYANTIGLPPRTQSLYLGNLPKLENVCEDVKDINFDTKEKFLAGCLIVSFHEGKNLKKRYPQNKNSGNKENLCKALEYSFADYGDLIKGTSIWDNEYTKDLELNLQNNFGKLFGKYIKKNNTAEQDTSYSSLDELRESWWNTNKKYIWTAMKHGAEMNITTCNADGSVTGSGSSCDDIPTIDLIPQYLRFLQEWVENFCEQRQAKVKDVITNCKSCKESGNKCKTECKTKCKDECEKYKKFIEACGTAGGGIGTAGSPWSKRWDQIYKRYSKHIEDAKRNRKAGTKNCGTSSTTNAAASTDENKCVQSDIDSFFKHLIDIGLTTPSSYLSNVLDDNICGADKAPWTTYTTYTTTEKCNKERDKSKSQSSDTLVVVNVPSPLGNTPYRYKYACQCKIPTNEETCDDRKEYMNQWSCGSARTMKRGYKNDNYELCKYNGVDVKPTTVRSNSSKLDSGRGELEGKPIPNPLLGLDSTRTGHHHHHH
As to B1, the “internalization of rVAR2 protein” value was “retained internalization capacity”.
